The values below come from patent publication US20250011410A1 (INVETX, published 2025).

Where “and” joins values, the source holds several entries; their conditions need not be identical. Equal entries are not always repeated.

To fix the notation:
B1: canine NGF tagged at the C-terminus with the Flag tag (ligand)
chain: SSSHPVFHRGEFSVCDSVSVWVGDKTTATDIKGKEVMVLGEVNINNSVFKQYFFETKCRDPTPVDSGCRGIDSKHWNSYCTTTHTFVKALTMDGKQAAWRFIRIDTACVCVLSRKAGRRADYKDDDDK
notes: Baculovirus expression; also called feline NGF (processed form identical)

The target in one assay is T1, canine p75-Fc (canine; human).
T1 construct: extracellular domain; also called canine p75 in a dimer format; not shown: human IgG1 Fc, UniProtKB P01857
Briefly: SPR, p75-Fc captured on anti-human Fc chip, NGF analyte.

In assay [1] the target is T2, canine TrkA-Fc (canine; human, UniProt A0A8I3P078 33-423).
T2 construct: extracellular domain; also called Trk-Fc; canine TrkA in a dimer format; not shown: human IgG1 Fc, UniProtKB P01857
T2 sequence (A0A8I3P078 entry or part of it): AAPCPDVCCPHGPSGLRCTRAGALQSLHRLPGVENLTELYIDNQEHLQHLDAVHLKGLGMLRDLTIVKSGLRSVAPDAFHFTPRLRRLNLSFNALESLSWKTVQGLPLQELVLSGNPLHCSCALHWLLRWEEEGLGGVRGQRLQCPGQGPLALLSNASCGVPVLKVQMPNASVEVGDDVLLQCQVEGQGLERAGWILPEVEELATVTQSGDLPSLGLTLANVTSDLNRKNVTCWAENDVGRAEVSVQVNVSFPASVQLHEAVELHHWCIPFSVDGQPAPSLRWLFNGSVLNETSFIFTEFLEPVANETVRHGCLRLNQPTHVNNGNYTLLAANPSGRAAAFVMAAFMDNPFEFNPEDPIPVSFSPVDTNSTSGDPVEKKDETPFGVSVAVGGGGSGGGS
Kind of assay: SPR, TrkA-Fc captured on anti-human Fc chip, NGF analyte. (In general: In SPR one partner is held on a chip, and binding of the other changes the refractive index at the surface.)

Assay [2] deals with B1. Kind of assay: SPR, antibody captured on goat anti-cat IgG, single cycle kinetics, NGF analyte.
Assay [3] concerns the target T3, canine NGF tagged at the C-terminus with the Flag tag (canine, UniProt A0A8I3PYI3 122-241).
T3 construct: mature; Expressed with baculovirus technology; also called feline NGF (processed form identical)
Kind of assay: SPR, IgG amine-coupled to HC30M chip, NGF analyte.

The target of assay [4] is T4, canine NGF tagged at the C-terminus with the Flag tag (canine, UniProt A0A8I3PYI3 122-241).
T4 construct: mature; 'mature' rests on the words 'processed form'; also called feline NGF (processed form identical)
Kind of assay: SPR, Biacore T200; antibody captured on anti-feline CM5 chip, NGF as analyte; 1:1 model.

For assay [5], the target named is canine NGF with a strep-tag at the C-terminus (canine, UniProt A0A8I3PYI3 122-241). Briefly: cell-based or functional assay.
Assay [6] deals with T5, human NGF (R&D Systems, 256-GF-100/CF) (human, UniProt P01138 122-241).
T5 construct: Conjugated to beads or fluorescently labelled; also called human NGF antigen
T5 sequence (P01138 122-241 limits assumed): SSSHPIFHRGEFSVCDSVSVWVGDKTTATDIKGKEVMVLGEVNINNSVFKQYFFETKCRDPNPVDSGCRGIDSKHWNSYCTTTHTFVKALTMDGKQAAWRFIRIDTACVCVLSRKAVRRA
Briefly: multiplexed bead assay, flow cytometry. In general terms: In flow cytometry, cells or beads pass a laser one at a time.

Assay [7] concerns the target T6, NT-3 (R&D Systems, 267-N3-025/CF) (UniProt P20783 139-257).
T6 sequence (looked up): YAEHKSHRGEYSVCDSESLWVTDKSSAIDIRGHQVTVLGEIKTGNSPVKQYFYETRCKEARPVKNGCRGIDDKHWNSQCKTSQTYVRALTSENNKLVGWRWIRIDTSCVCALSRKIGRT
Kind of assay: multiplexed bead assay, flow cytometry.

Assay [8] has as its target T7, BDNF (R&D Systems, 248-BDB-050/CF) (UniProt P23560 129-247).
T7 sequence (looked up): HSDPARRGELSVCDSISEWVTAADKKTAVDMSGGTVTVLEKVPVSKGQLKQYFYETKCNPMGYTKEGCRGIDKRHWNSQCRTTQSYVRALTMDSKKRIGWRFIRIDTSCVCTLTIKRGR
Kind of assay: multiplexed bead assay, flow cytometry.

Assay [9] addresses B1. Kind of assay: SPR, antibody amine-coupled, NGF analyte.
For assay [10], the target named is B1. Briefly: SPR; antibody amine-coupled to HC30M sensor chip, canine NGF-Flag as analyte.
The target in assay [11] is T2, canine TrkA-Fc. Briefly: SPR, receptor-Fc captured on anti-human Fc chip.
Assay [12] deals with B1. Briefly: SPR Biacore T200, antibody captured on protein A, NGF analyte.
Assay [13] deals with B1. Briefly: SPR Biacore T200, antibody captured on protein A, NGF analyte; fitted KD, one-to-one model.

For orientation: Kd means the concentration at which binding is half-saturated. The koff is the rate constant with which the complex falls apart. Low readings indicate slow dissociation, high ones fast dissociation. The term kon denotes a measure of how fast the partners come together. For B1, the Kd with canine p75-Fc is 3.7 nM and 2.7 nM. Further, in the assay with canine TrkA-Fc [1], the Kd is 0.013 nM and 0.0066 nM; the off-rate (koff) is 0.00017 s⁻¹ and 0.00016 s⁻¹; the kon is 1.3e+07 M⁻¹ s⁻¹ and 2.4e+07 M⁻¹ s⁻¹.

B2: felinized clone 101 (antibody, V domains shown)
VH: DVQLVESGGDLVKPGGSLRLTCVASGLSLTSSSMSWVRQAPGKGLQWVSTIYSNGGTYYTDSVKGRFTISKDNAENTLYLQMNNLKTEDTATYYCASIYYYDADYLHWYFDFWGQGALVTVSS
VL: EIQMTQSPTSLSASVGDRVTITCRASEGISNNLSWYQQTPGKAPKLLIYATSNLHSGVPSRFSGSGSGTDFTLTISSLQPEDFATYYCQQGYKWPLTFGGGTKLEIT
In [2], B2 showed a Kd of 7.8 nM, a koff of 0.003 s⁻¹ and an on-rate constant (kon) of 380000 M⁻¹ s⁻¹.

B3: felinized clone 101 (IgG) (antibody, V domains shown)
VH: DVQLVESGGDLVKPGGSLRLTCVASGLSLTSSSMSWVRQAPGKGLQWVSTIYSNGGTYYTDSVKGRFTISKDNAENTLYLQMNNLKTEDTATYYCASIYYYDADYLHWYFDFWGQGALVTVSS
VL: EIQMTQSPTSLSASVGDRVTITCRASEGISNNLSWYQQTPGKAPKLLIYATSNLHSGVPSRFSGSGSGTDFTLTISSLQPEDFATYYCQQGYKWPLTFGGGTKLEIT
In assay [3], B3 gave a Kd of 2.1 nM, a koff of 0.00022 s⁻¹ and a kon of 110000 M⁻¹ s⁻¹.

B4: SC-184_110 (antibody, IgG1a, V domains shown)
VH: DVQLVESGGDLVKPGGSLRLTCVASGLSLTSASMSWVRQAPGKGLQWVSTIYSNGGTYYTDSVKGRFTISKDNAENTLYLQMNNLKTEDTATYYCASIYYYEAEYLHWYFDFWGQGALVTVSS
VL: EIQMTQSPTSLSASVGDRVTITCRASEGISKNLSWYQQTPGKAPKLLIYATDNLHSGVPSRFSGSGSGTDFTLTISSLQPEDFATYYCQQGWKWPLTFGGGTKLEIT
In assay [3], B4 yielded a Kd of 0.36 nM, a koff of 3.6e-05 s⁻¹ and a kon of 160000 M⁻¹ s⁻¹.

B5: SC-184_102 (antibody, IgG1a, V domains shown)
VH: DVQLVESGGDLVKPGGSLRLTCVASGLSLTSNSMSWVRQAPGKGLQWVSTIWSNGGTYYTDSVKGRFTISKDNAENTLYLQMNNLKTEDTATYYCASIYYYEAEYLHWYFDFWGQGALVTVSS
VL: EIQMTQSPTSLSASVGDRVTITCRASKGISNNLSWYQQTPGKAPKLLIYAQSNLHSGVPSRFSGSGSGTDFTLTISSLQPEDFATYYCQQGYKWPLTFGGGTKLEIT
Turning to B5, the kon in assay [3] is 210000 M⁻¹ s⁻¹.

B6: SC-184_76 (antibody, IgG1a, V domains shown)
VH: DVQLVESGGDLVKPGGSLRLTCVASGLSLTSDSMSWVRQAPGKGLQWVSTLWSNGGTYYTDSVKGRFTISKDNAENTLYLQMNNLKTEDTATYYCASIYYYEADYLHWYFDFWGQGALVTVSS
VL: EIQMTQSPTSLSASVGDRVTITCRASEGIANNLSWYQQTPGKAPKLLIYATSNLHSGVPSRFSGSGSGTDFTLTISSLQPEDFATYYCQQGFKWPLTFGGGTKLEIT
For B6, in assay [3], the Kd stood at 0.25 nM, the koff worked out at 6.9e-05 s⁻¹ and the kon was found to be 270000 M⁻¹ s⁻¹.

B7: SC-184_110-Arg (antibody, V domains shown)
VH: DVQLVESGGDLVKPGGSLRLTCVASGLSLTSASMSWVRQAPGKGLQWVSTIYSNRGTYYTDSVKGRFTISKDNAENTLYLQMNNLKTEDTATYYCASIYYYEAEYLHWYFDFWGQGALVTVSS
VL: EIQMTQSPTSLSASVGDRVTITCRASEGISKNLSWYQQTPGKAPKLLIYATDNLHSGVPSRFSGSGSGTDFTLTISSLQPEDFATYYCQQGWKWPLTFGGGTKLEIT
notes: SC-184_110 containing the G55R mutation in VH; feline antibody captured on an anti-feline chip
With B7, in [4], the Kd was determined as 0.142 nM, the koff stood at 5.48e-05 s⁻¹ and the kon stood at 387000 M⁻¹ s⁻¹.

B8: rat antibody 2166 (antibody, V domains shown)
VH: QVQLKESGPGLVQPSQTLSLTCTVSGLSLTSNSVSWIRQPPGKGLEWMGVIWSNGGTDYNSAIESRLSINRDTSKSQVFLKMNSLQPEDTAMYFCASIYYYDADYLHWYFDFWGPGTMVTVSS
VL: DIQMTQSPASLSASLGETVSIECLASEGISNSLAWYQLKPGKSPQFLIYATSSLQDGVPSRFSGSGSGTQYSLKISGMQPEDEGVYYCQQGYKFPLTFGSGTKLKIK
As for B8, in [5], the “IC50 (read off the curve): % inhibition of canine NGF-driven TF-1 cell proliferation” value was around 0.03 nM. For the same molecule, the “fold over background (MFI normalized over isotype control)” value in assay [6] was above 59 fold. The binding result in [7] and in assay [8] was “no binding” in each case. In addition, the Kd is at most 0.0042 nM in [9] and 0.042 nM in [10]. Further, in [9], the koff is at most 1e-05 s⁻¹. The molecule further showed a kon in assay [9] of 2.38e+06 M⁻¹ s⁻¹.

B9: canine 2166 chimeric antibody (antibody, V domains shown)
VH: QVQLKESGPGLVQPSQTLSLTCTVSGLSLTSNSVSWIRQPPGKGLEWMGVIWSNGGTDYNSAIESRLSINRDTSKSQVFLKMNSLQPEDTAMYFCASIYYYDADYLHWYFDFWGPGTMVTVSS
VL: DIQMTQSPASLSASLGETVSIECLASEGISNSLAWYQLKPGKSPQFLIYATSSLQDGVPSRFSGSGSGTQYSLKISGMQPEDEGVYYCQQGYKFPLTFGSGTKLKIKR
Consider B9, for which the binding result in the assay with canine TrkA-Fc [11] is given as “no binding (tested: 12.5 nM to 100 nM)”. In assay [12], this molecule displayed a koff below 1e-05 s⁻¹ and a kon of 1.2e+07 M⁻¹ s⁻¹. Also, the Kd in [13] is at most 0.05 nM.
